This is an account of results in paper PMC8163358.

This test has as its target gramicidin S synthetase A (GrsA) (UniProt P0C062). Kind of test: MST; 1 nM GrsA labelled with NT-647-NHS (RED-NHS kit), dilution series of TycB1(WT); NRPS buffer (50 mM HEPES, 100 mM NaCl, 10 mM MgCl2, 1 mM EDTA, pH 7.0) with 0.05% (v/v) Tween-20; triplicate; sigmoidal fit.
UniProt P0C062, sequence (P0C062 whole entry): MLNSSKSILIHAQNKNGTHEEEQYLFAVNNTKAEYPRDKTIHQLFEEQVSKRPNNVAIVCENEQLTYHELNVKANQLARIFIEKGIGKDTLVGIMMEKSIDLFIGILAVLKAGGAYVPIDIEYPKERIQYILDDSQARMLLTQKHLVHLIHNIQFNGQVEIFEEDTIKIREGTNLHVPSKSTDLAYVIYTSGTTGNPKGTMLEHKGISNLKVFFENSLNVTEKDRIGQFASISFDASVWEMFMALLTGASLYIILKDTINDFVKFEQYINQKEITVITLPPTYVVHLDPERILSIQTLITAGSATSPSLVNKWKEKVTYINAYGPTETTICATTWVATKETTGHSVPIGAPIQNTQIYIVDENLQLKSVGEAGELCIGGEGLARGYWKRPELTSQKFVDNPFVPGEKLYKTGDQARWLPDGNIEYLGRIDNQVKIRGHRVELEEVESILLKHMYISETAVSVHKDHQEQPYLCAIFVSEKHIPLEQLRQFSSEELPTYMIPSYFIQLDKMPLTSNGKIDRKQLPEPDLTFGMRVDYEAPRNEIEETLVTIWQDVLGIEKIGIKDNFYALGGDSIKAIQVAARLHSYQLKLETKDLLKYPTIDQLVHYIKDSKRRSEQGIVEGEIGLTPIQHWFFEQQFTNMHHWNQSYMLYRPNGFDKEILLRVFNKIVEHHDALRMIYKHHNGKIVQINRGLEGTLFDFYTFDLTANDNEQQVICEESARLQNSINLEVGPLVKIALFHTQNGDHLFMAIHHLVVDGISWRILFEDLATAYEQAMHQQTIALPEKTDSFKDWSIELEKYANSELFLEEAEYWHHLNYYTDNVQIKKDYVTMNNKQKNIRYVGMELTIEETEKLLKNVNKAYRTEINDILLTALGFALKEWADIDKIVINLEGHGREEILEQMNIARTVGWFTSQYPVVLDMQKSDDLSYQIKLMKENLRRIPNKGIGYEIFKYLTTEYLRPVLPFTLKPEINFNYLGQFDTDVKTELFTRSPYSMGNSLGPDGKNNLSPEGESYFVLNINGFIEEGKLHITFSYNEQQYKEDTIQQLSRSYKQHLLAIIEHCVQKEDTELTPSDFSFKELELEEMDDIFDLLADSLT

As to “TycB1 (wildtype) (from UniProt O30408 1-3587) (domain or fragment)”, the Kd stood at 5 µM.
